In PMC11919693, “Structural basis of the mechanism and inhibition of a human ceramide synthase” (Nature Structural & Molecular Biology, 2024):

How the values were obtained:
[1] = target: T1, biotinylated C-terminally Avi-tagged human CerS6 (Homo sapiens, biotin on the Avi tag (in vitro, BirA)); experiment: BLI; Octet Red 384, Streptavidin SA biosensors loaded with 40 µg/ml biotinylated CerS6, SEC buffer with 0.003% LMNG and 0.0003% CHS; screen of unique nanobodies for slow off rates; conditions: both partners purified
T1 construct: Ceramide synthase 6 (CerS6), Homo sapiens, UniProt Q6ZMG9; A Gly-Gly-Gly-Ser linker stands between CerS6 and the Avi tag, which lies upstream of the TEV cleavage site; also called biotinylated CerS6; Avi-tagged CerS6; not shown: Avi, C-terminal, kept; 10xHis, C-terminal, cleaved; Twin-Strep, C-terminal, cleaved
T1 chain: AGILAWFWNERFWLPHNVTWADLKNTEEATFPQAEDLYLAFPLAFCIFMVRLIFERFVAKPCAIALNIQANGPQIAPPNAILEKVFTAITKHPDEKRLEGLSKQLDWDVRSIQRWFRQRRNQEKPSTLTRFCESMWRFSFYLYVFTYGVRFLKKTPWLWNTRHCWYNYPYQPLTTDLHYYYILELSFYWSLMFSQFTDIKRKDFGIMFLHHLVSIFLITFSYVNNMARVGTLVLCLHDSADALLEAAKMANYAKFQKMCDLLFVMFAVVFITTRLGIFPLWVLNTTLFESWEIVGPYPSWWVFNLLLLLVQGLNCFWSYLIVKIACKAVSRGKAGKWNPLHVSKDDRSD

[2] = target: human ceramide synthase 6 (CerS6), truncated at Asp350 (Met1-Asp350) (human) (UniProt Q6ZMG9); experiment: cryo-EM structure; CerS6 dimer mixed with a 1.5x molar excess of nanobody (Nb22 or Nb02), 1 h on ice, complex purified by SEC in GDN, 5 mg/ml; the CerS6–Nb22 complex also after incubation with 120 µM FB1; C2 symmetry imposed
[3] = denaturing intact protein MS; conditions: glycan lost; control: wild-type CerS6 (Met1-Asp350)
[4] = target: the molecule itself; experiment: cryo-EM structure; CerS6 dimer mixed with a 1.5x molar excess of nanobody (Nb22 or Nb02), 1 h on ice, complex purified by SEC in GDN, 5 mg/ml; the CerS6–Nb22 complex also after incubation with 120 µM FB1; C2 symmetry imposed

B1: nanobody 22 (Nb22), anti-CerS6 camelid nanobody (VHH)
VHH: QVQLVESGGGLVQAEGSLRLSCAASGRTFRTYGMGWFRQAPGKEREFVAALNWSGSSTYYADSVKGRFTISRDNAKNTAYLQMNSLKPEDTAVYYCAALRRKAEYGSRSIADFDSWSKGTPVTVSS
notes: alpaca nanobody raised against CerS6 proteoliposomes; its chain is in the deposited models PDB 8QZ6 and 8QZ7 (residues 1-124 modelled); source: WK6 cells, purified from periplasmic extracts (Ni2+-NTA)
binding result [1]: binds
stoichiometry N [2]: 1 per monomer

B2: nanobody 02 (Nb02), anti-CerS6 camelid nanobody (VHH)
VHH: QLQFVESGGGLVQAGGSLRLSCAASGRTFSRYAVGWFRQAPGKEREFVASITWNGATTYYADSVKGRFTISRDNAKNTVYLQMNSLKPEDTAVYYCALDLYSYGTRDVADFGSWGKGTRVTVSS
notes: alpaca nanobody raised against CerS6 proteoliposomes; its chain is in the deposited model PDB 9EOT (residues 1-123 modelled); source: WK6 cells, purified from periplasmic extracts (Ni2+-NTA)
binding result [1]: binds
stoichiometry N [2]: 1

B3: CerS6: N18Q (protein)
parent chain: MAGILAWFWNERFWLPHNVTWADLKNTEEATFPQAEDLYLAFPLAFCIFMVRLIFERFVAKPCAIALNIQANGPQIAPPNAILEKVFTAITKHPDEKRLEGLSKQLDWDVRSIQRWFRQRRNQEKPSTLTRFCESMWRFSFYLYVFTYGVRFLKKTPWLWNTRHCWYNYPYQPLTTDLHYYYILELSFYWSLMFSQFTDIKRKDFGIMFLHHLVSIFLITFSYVNNMARVGTLVLCLHDSADALLEAAKMANYAKFQKMCDLLFVMFAVVFITTRLGIFPLWVLNTTLFESWEIVGPYPSWWVFNLLLLLVQGLNCFWSYLIVKIACKAVSRGKVSKDDRSDIESSSDEEDSEPPGKNPHTATTTNGTSGTNGYLLTGSCSMDD
other: presence of covalent palmitoyl-enzyme adduct, other: adduct mass shift [3]: no change, +239.80 vs +238.45

B4: human ceramide synthase 6 (CerS6), truncated at Asp350 (Met1-Asp350) (enzyme, UniProt Q6ZMG9-2 1-350, looked up)
chain: MAGILAWFWNERFWLPHNVTWADLKNTEEATFPQAEDLYLAFPLAFCIFMVRLIFERFVAKPCAIALNIQANGPQIAPPNAILEKVFTAITKHPDEKRLEGLSKQLDWDVRSIQRWFRQRRNQEKPSTLTRFCESMWRFSFYLYVFTYGVRFLKKTPWLWNTRHCWYNYPYQPLTTDLHYYYILELSFYWSLMFSQFTDIKRKDFGIMFLHHLVSIFLITFSYVNNMARVGTLVLCLHDSADALLEAAKMANYAKFQKMCDLLFVMFAVVFITTRLGIFPLWVLNTTLFESWEIVGPYPSWWVFNLLLLLVQGLNCFWSYLIVKIACKAVSRGKAGKWNPLHVSKDDRSD
modifications: palmitoyl (C16:0) chain covalently attached to His211 (covalent intermediate state; transferred to FB1 in the N-palmitoyl FB1-bound state); N-linked glycan on Asn18; loss of the initiator methionine and acetylation of the new N terminus
notes: Ceramide synthase 6 (CerS6), Homo sapiens, UniProt Q6ZMG9, residues Met1-Asp350; C terminus predicted to be disordered removed; Purified as a mixture of monomer and dimer; the dimer SEC peak was used for the nanobody complexes and cryo-EM; also called acyl–CerS6; palmitoyl–CerS6; not shown: 10xHis, C-terminal, cleaved; Twin-Strep, C-terminal, cleaved
stoichiometry N [4]: 2
